How the values were obtained:
[1] = target: T1, GFP-GEF-H1 (human, UniProt Q92974 93-986); assay: biotinylated peptide on streptavidin beads, pull-down from 293T lysate, GEF-H1 immunoblot
T1 construct: The legend says GFP-GEF-H1, the text GEF-H1S; also called GEF-H1S; EGFP-GEF-H1S; not shown: EGFP from vector pEGFP-C1 (Clontech)
T1 sequence: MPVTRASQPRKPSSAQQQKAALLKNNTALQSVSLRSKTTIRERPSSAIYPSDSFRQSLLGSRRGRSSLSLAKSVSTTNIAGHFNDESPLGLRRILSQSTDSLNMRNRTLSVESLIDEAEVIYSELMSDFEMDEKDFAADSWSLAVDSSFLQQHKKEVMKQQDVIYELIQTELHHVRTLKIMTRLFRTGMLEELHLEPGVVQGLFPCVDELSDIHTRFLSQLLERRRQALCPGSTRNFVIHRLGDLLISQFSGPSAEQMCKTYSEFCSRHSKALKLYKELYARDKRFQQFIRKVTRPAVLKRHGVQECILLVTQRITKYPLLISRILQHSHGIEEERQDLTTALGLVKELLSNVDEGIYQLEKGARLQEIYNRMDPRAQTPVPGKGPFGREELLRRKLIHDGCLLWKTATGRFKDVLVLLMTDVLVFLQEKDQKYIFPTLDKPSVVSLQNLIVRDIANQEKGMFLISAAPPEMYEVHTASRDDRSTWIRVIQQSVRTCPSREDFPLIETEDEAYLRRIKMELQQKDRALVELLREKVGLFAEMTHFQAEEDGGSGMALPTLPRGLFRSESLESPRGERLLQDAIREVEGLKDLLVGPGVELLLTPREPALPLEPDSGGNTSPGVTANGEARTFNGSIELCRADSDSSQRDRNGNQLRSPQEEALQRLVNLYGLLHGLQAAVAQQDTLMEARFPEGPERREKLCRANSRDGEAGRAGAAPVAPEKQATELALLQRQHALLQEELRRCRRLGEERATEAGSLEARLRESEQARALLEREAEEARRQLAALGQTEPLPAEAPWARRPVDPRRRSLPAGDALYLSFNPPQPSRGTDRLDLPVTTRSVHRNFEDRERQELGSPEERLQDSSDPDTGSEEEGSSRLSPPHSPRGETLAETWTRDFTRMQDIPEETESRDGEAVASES
Protocol: FIG. 1: Direct binding of GEF-H1 to PAK4. […] An equivalent amount of beads and excess lysates (500 ug) were used. Eluates of beads and total lysates were analysed by SDS-PAGE and immunoblotted with myc or GEF-H1 antiserum; (c) represents a PAK4 gene schematic outlining the regions of PAK4 used to identify the GEF-H1 interaction domain (GID). d, alignment of the GID defined by the minimal binding region of PAK4 with PAK5 and PAK6.
Biotinylated peptides derived from the N-terminal region of PAK4 sequence were used to further map the GEF-H1 binding site. […] Based on the homology within the GID of PAK4 it is possible that PAK5 and PAK6 also interact with GEF-H1 or related proteins.

[2] = target: T2, Glutathione-s-transferase (GST) fused PAK4 (residues 291-591) (human, UniProt O96013 291-591); assay: phage display screen, GST-PAK4 (291-591) on glutathione beads, MCF7 cDNA library
T2 construct: Bait of the phage display screen; the paragraphs that tell the kinase results say only PAK4; also called PAK4 kinase; not shown: glutathione-S-transferase (GST), protein product of the SJ26 gene, fusion partner from pGEX-4T
Description: The phage display hits isolated in the screen corresponded to in-frame fusions derived from several distinct genes. One fragment was derived from the Maguin-2-like gene. Two other hits were derived from the GEF-H1S splice variant of GEF-H1.
This expression vector allowed production and expression of a gene appropriately inserted, as a fusion protein where the fusion partner is the protein product of the SJ26 gene glutathione-s-transferase (GST). The fusion partner GST allows for affinity immobilization on glutathione sepharose 4B matrix (Amersham Biosciences Cat # 17-0756-01) also known as glutathione beads. The PAK4 polypeptide immobilized to these beads was incubated with a lysate containing phage particles expressing a library of peptides derived from MCF7 (breast carcinoma tissue culture cells available from ATCC, USA) cDNA. See, Zozulya et al., Nat. Biotechnol., 17(12): p. 1193-8, 1999. Upon sequencing many of the candidates obtained in this screen, the GEF-H1S polypeptide was discovered in the clone designated 13-8. Sequencing was performed on a ABI prizm machine using standard methods provided by the manufacturer (Applied Biosystems, USA).

[3] = target: T3, amino-terminal regulatory domain of PAK4 alone (amino acids 1-309) (human, UniProt O96013 1-309); assay: GST pull-down on glutathione beads from 293T lysate, myc immunoblot
T3 construct: Over-expressed in 293T cells, used as cell lysate
T3 sequence (looked up): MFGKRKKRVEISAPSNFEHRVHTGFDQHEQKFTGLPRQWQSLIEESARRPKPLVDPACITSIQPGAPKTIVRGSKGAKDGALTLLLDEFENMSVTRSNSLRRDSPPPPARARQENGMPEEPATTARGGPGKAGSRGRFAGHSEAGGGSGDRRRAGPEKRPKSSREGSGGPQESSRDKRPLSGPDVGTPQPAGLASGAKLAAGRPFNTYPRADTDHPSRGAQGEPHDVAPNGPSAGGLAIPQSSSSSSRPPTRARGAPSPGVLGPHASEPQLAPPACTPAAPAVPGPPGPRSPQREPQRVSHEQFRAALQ
Protocol: An equivalent amount of beads and excess lysates (500 ug) were used. Eluates of beads and total lysates were analysed by SDS-PAGE and immunoblotted with myc or GEF-H1 antiserum; (c) represents a PAK4 gene schematic outlining the regions of PAK4 used to identify the GEF-H1 interaction domain (GID). d, alignment of the GID defined by the minimal binding region of PAK4 with PAK5 and PAK6.
These fusion proteins were bound to glutathione beads and utilized in binding assays with 293T lysates expressing exogenous PAK4.
The GST immobilized GEF-H1S polypeptide was used to conduct immunoprecipitation from the 293T cell extracts. The resulting protein complexes on the beads were identified by separating on SDS-PAGE followed by Western blotting to identify proteins that are present. The Western blot technique (Renart et al., Methods Enzymol., 104:455-60, 1984) is universally used to identify proteins using specific immunoreagents like antibodies. […] PAK4 was not present after immunoprecipitation with immobilized fusion partner GST. This interaction was limited by the presence or absence of GEF-H1S.

B1: biotinylated PAK4 peptide, amino acids 291-355 (peptide, UniProt O96013 291-355, looked up)
peptide: SPQREPQRVSHEQFRAALQLVVDPGDPRSYLDNFIKIGEGSTGIVCIATVRSSGKLVAVKKMDLR
modifications: biotinylated (position not given)
notes: Linked to streptavidin beads
Question: Does B1 bind [1]?
Answer: no binding

B2: GEF-H1S polypeptide of phage display clone 13-8 (amino acids 763-921) (other)
chain: LRESEQARALLEREAEEARRQLAALGQTEPLPAEAPWARRPVDPRRRSLPAGDALYLSFNPPQPSRGTDRLDLPVTTRSVHRNFEDRERQELGSPEERLQDSSDPDTGSEEEGSSRLSPPHSPRGETLAETWTRDFTRMQDIPEETESRDGEAVASES
notes: Two hits came from GEF-H1S; only this one has stated limits; also called phage clone 13.8; GEF-H1 phage display hit; not shown: phage display fusion partner
Question: Does B2 bind [2]?
Answer: binds

B3: GST-GEF-H1S (aa763-921) (other)
chain: LRESEQARALLEREAEEARRQLAALGQTEPLPAEAPWARRPVDPRRRSLPAGDALYLSFNPPQPSRGTDRLDLPVTTRSVHRNFEDRERQELGSPEERLQDSSDPDTGSEEEGSSRLSPPHSPRGETLAETWTRDFTRMQDIPEETESRDGEAVASES
notes: not shown: glutathione-S-transferase (GST), protein product of the SJ26 gene, fusion partner from pGEX-4T
Question: Does B3 bind [3]?
Answer: no binding

Source: patent US20040091907A1 (SUGEN, published 2004)
